Results from patent publication US20150025013A1.

Columns and labels:
[1] = biological target: (pro)renin receptor (PRR), mouse (mouse) (UniProt Q9CYN9); assay: cell-based or functional assay
[2] = biological target: (pro)renin receptor (PRR) on mpkCCD cells (UniProt Q9CYN9); assay: cell-based or functional assay
Sequence of (pro)renin receptor (PRR) on mpkCCD cells (Q9CYN9 18-350 limits assumed): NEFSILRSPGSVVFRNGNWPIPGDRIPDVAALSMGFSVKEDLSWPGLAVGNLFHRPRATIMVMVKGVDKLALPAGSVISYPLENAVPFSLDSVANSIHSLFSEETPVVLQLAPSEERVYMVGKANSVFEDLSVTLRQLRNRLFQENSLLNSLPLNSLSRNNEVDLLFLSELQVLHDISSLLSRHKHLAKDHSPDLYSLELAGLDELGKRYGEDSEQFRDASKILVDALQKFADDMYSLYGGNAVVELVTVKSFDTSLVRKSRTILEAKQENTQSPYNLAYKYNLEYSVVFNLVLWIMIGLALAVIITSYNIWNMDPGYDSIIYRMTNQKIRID

Sequence of (pro)renin receptor (PRR), mouse (mouse) (Q9CYN9 18-350): as the sequence (Q9CYN9 18-350 limits assumed) above

pressor response (delta MAP) to ICV mouse prorenin alone in C57BI/6J mice [1] [mmHg]	pressor response (delta MAP) to ICV mouse prorenin in neuron-specific PRR knockout (Nefh-PRR) mice [1] [mmHg]	pressor response (delta MAP) to ICV mouse prorenin in wild-type mice [1] [mmHg]	ENaC activity (Ieq) in mpkCCD cells, 10 nM for 5 min (control group 1.17+0.05 µA/cm2) [2] [µA/cm2]	Substance
31.3	5	41	–	mouse prorenin (from UniProt P06281 22-402) (ligand)
–	–	–	3.16	prorenin (cell culture experiments of Example 13) (ligand)
–	–	–	1.58	renin (cell culture experiments of Example 13) (enzyme)
